This is an account of results in the nanobody polyreactivity screen of Harvey et al. (2022).

The data set is described as follows: yeast display, Sf9 membrane polyspecificity reagent, FACS + sequencing; frameworks hold sequencing errors. In short, it runs like this: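 Synthetic nanobody libraries on Saccharomyces cerevisiae BJ5465 were galactose-induced for 36–48 hours, stained 1 hour at 4 °C with 10% biotinylated, detergent-solubilized Sf9 membrane reagent and enriched on streptavidin microbeads. FACS then separated cells into low and high (top ~1%) gates by anti-HA (expression) and streptavidin (reagent binding) fluorescence. Genes were colony-PCR amplified, MiSeq 2 × 250 sequenced and CDR-length filtered. A clone's polyreactivity label is that of its gate of origin.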
For the sequence “QVQRVESGGGLVQAGGSLRLSCAASGFIFKDNAMGWYRQARGKERELVAVISGTGGRTNSADSVKGRFTISRDNAKNTVYLQMNSLKPEDTAVYYCAAEGYYTSTYDLYDYYYWGQGTQVTVSS”, the “polyreactivity (PSR sort gate)” value is given as “low polyreactivity”.
The entry for “QVQLVESGGGLVQAGGSLRLSCAASGRIFYIYTMGWYRPAPGKEREFVAGINWNGGSTYYADSVKGRFTISRDNAKNTVYLQMNSLKPEDTAVYYCNADQYWDRYYYWGQGTQVTVSS” is “low polyreactivity”; for “QVQLQESGGGLVQAGGDLRLSCAASGNIFRDYIMGWYRQAPGKEREFVAGIDRGANTNYADSVKGRFTISRDNAKNTVYLQMNSLKPEDTAVYYCAVHTAIVPDFIYWGQGSQVTVSS” it is “low polyreactivity”.
The entry for “QVQLVESGGGLVQAGGSLRLSCAASGSILRSYAMGWYRQAPGKERELVAAISSSGGSTYYADSVKGRFTISRDNAKNTVYLQMNSLKPEDTAVYYCAAATSRRFDYWGQGTQVTVSS” is “high polyreactivity”; for “QVQLVESCGGLVQAGGSLRLSCSATGSTSVANAMGWYRQAPGKEREIVAAITGYGVSTYYADSVKGRFTISRDNAKNTVFLQMNSLKPEDTAVYYCATRGVSTSRPGYYWGQGTQVSVSS” it is “high polyreactivity”.
As for “QVQLVESGGGLVHAGGSLRLSCAASGRILVDYAMGWYRQAPGKERELVAAITSTGGTTYYADSVKGRFTISRDNAKNTVYLQMNSLKPEDTAVYYCAAKRQDSWGGTYGYWGQGTQVTVSS”, the “polyreactivity (PSR sort gate)” value was “low polyreactivity”.
“QVQLVESGGGLVQAGGSLRLSCAASGSIIWRNAMGWYSQAPGKERELVAAISYSGGSTYYADSVKGRFTISRDNAKNTVDLQMNSLKPEDTAVYYCAADYTEVLEYDYWGQGTQVTVSS”: the “polyreactivity (PSR sort gate)” value is “low polyreactivity”.
The entry for “QVQLVESGGGLVKAGGSLRLSCAASGSTIGGNAMVWYRQAPGKERELVASITRSGGSTYYADSVKGRFTISRDNAKNNVYLQMNSLKPEDSAVYYCAAGKWYRSPWKYDYWGQVTQVTVSS” is “low polyreactivity”.
The entry for “QVQLVESGGVLVQAGGSLRLSCAASGSTFPWYAMGWYRPAPGKERELVAAITARGTRTYYADSVKGRFTISRDNAKNTVYLQMNILKPEDTAVYYCNAGISSRYDYWGQGTQVTVSS” is “high polyreactivity”; for “QVQLVESGGGLVQAGGILRLSCAASGRTVVSYAMGWYRQQPGKGRELVAVITGGTGNTYYADSVKGRFTISRDNEKNTVYLQMNSLKREDTAVYYCNARGCYYKFRYPLYYWGQGTQVTVSS” it is “high polyreactivity”; for “QVHLVESGGGLVQAGGSLRVSCAASGSIFPDNAMGWYTQAPGKERELVAAITFSGGRTYYADSVKGRFTISRDNAKNTVYLQMNSQKPEDTAVYYCATAKGVKLYRYPDYSGYYPYDYWGQGTQVTVSS” it is “high polyreactivity”.
The entry for “QDQLVESGGGLVQAGGSLRLSCAASGITFDYYVMGWYRKAPGKEMELVAAISWSGGTTYYADSVKGRFTISRDNAKNTVSLQMNSLKPEDTAVYYCNAEHTGSFYGGYPWEMEYWGQGTQVTVSS” is “low polyreactivity”; for “QVQHVESGGGLVQAGGSLRLSCAASGSIFWYYAMGWYRKAPVKERELVAAITSSGGRTYYADSVKGRFTISRDNAKNTVYLQMNSLKQEDTAVYYCAARQWWRYDYWGQGTQVTVSS” it is “high polyreactivity”; for “QVQLVESGGGLVQAGGSLRLSCAASGFIFRGYAMGWYRQPPGKERELVATITNGGSTYYADSVKGRFTISRDNAKNTVYLQMNSLKPEDTAVYFCAAVTKFGEYAPGSKGYGYWGQGSQVTVSS” it is “low polyreactivity”.
For the sequence “QVQLVESGGGLVQAGGSLRLSCAASGSTFRWNTMGWDRQAPGKEREMVAAISYSGGITYYADSVKGRFTISRDNAKNTVYLQMNSLKPEDTAVYYCNLVAYRSYLSSYDYWGQGTQVTVSS”, the “polyreactivity (PSR sort gate)” value was “high polyreactivity”.
The entry for “LVQLVESGGGLVQAGGSLRLICAASGITISYNAMGWYRQAPGKERELVAAITGSDGITYYADSVKGRFTISRDNAKNTVYLEMNSLKPEDTAVYYCAAEWWDYWYEYDYWGQGTQVTVSS” is “high polyreactivity”; for “QVQLVESGGGLVQAGGSLRLSCAASGRTFSYYAMGWYRQAPGKERELVAAITSGGGRTYYADSVKGRFTISRDNAKNTVYLQMNSLKPEDTAVYYCNKAYVSRYDYWGQGTQVTVSS” it is “high polyreactivity”; for “QVQLVDSGGGLVQAGGSLRLTCAASGRTFRYNAMGWYRQAPGKERDLVARISRGGSPYADSVKGRFTISRDNAKNTVYLQMNSLKPEDSAVYYCAADPTKHNQSEYYYWGQGTQVNVSS” it is “low polyreactivity”.
For the sequence “QVQLVESGGGLVQAGGSLRLSCAASGSTFNRYAMGWYRQAPGKERELVAAITSTGGTNYADSVKGRFTISLDNAKNTVYLQMYSLKPEDTAVYYCAKRWLRGRSNYWGHGTQVTVSS”, the “polyreactivity (PSR sort gate)” value is reported as “high polyreactivity”.
“QVQLQESGGGLVHAGGSLRLSCAASVTISFINMMGWYRQAPGRERELDASINFGANTNYADSVKGRFTISRDNAKNSVYLQMNSLKPEDTAVYYCAVYDFDAYTLYYWGQGTLVTVSS”: the “polyreactivity (PSR sort gate)” value is “high polyreactivity”.
The entry for “QLQLVESGGGLVQAGGSLRLSCAPSGLTFGRYAMGGYRHAPGKERELVAAITARVGRTYYADSVKGRFTISRDNEKNTVYLQMNSLKPEDTAVYYCAAGPSYFWYSHEKYDYWGQGTQVTVSS” is “high polyreactivity”; for “QVQLVESGGGLVQAGGSLRLSCAASGSIFWWYGMGWYRQAPGKEREFVADITSGGGTYYADSVKGRFTISRDNAKNTVYLQMNSLKPEDTAVYYCAADVRAYRFDYYFDYWGQGTQVTVSS” it is “low polyreactivity”.
The entry for “QVQLQESGDGLVQAVGSLRLSCAASGYISGYNYMGWYRQAPGKERELVAGIDAFGSSTNYADCVKGRFTISRDNAKNTVYLQMNSPKPEDTAVYYCAAEYDDWDYLWYWGQGTQVTVSS” is “low polyreactivity”; for “QVQLVESGGCLVQAGGSLRLSCAASGFTLTGNAMGWYRQAPGKERELVADISNSGGTTNYADSVKGRFTISRDNAKNTVYLQMNSLKPDDSAVYYCAADVSYRNIGLEYWGQGTQVTVSS” it is “high polyreactivity”.
As for “QVQLVESGGGLVQAGGSLRLSCAAYGFFFPFYTMGWYRQAPGKERELVAAIRYSAGRTYYADSVKGRFTISRDNAKNTVYLQMNSLKPEDTAVYYCAADAIYSRAWGFDYWGQGTQVTVSS”, the “polyreactivity (PSR sort gate)” value is “high polyreactivity”.
The entry for “QVQLVESGGGLVQAGGSLRLSCAASGSILRYYAMGWYRQAPGKERELVAAITGRGGRTYYADSVKGRFTISRDNAKYTVYLQMNSLKPEDTAVYYCAADGDNPYLHEEDYWGQGTQVTVSS” is “high polyreactivity”.
The entry for “QVQLVESGGGLVQAGGSLRLSCAASGFTFTRYAMGWYRQAPGKERELVAAISRIGGSTYYADSVKGRFTISRDNAKNTVYLQMNSLKPEDTAVYYCAAYKVPSYDYWGQGTQVTVSS” is “high polyreactivity”; for “QVQLVESGGGLVQAGGSLRLSCAASGSISDYYAMGWYRQAPGKERELVAAISWDGGSTYYADTVKGRFTISRDNAKNTVYLQMNSLKPEDTAVYYCNAGSGASVGNHILYDYWGQGTQVTVSS” it is “low polyreactivity”; for “QVQLVESGGGLVQAGGSLRLSCAASGRIFLLNAMGWSRQAPGKERELVAAIDIIGGSTYYADSVKGRFTISRDNAKNTVYLQMNSLKPEDTAVFYCAAEADFWRFVEYDYWGQGTQVTVSS” it is “low polyreactivity”.
Regarding “QVQLVESGGGLVQAGGSLRLSCAASGSTFADYAMGWYRQAPGKERELVAAITSSGGDTYYADSVKGRFTISRDNAKNTVYLQMNSLKPEDTAVYYCAVVDTLYDSKYDYWGQGTQVTVSS”, the “polyreactivity (PSR sort gate)” value is “low polyreactivity”.
The entry for “QVQLVESGGGLVQAGGSLRLSCAASGRIFPYMGWYRQAPGKERELVAAINASGGRTYYADSVKGRFTISRDNAKNTVYLQMNSLKPEDTAVYYCNAVWSSDTYTHPQYDYWGQGTQVTVSS” is “high polyreactivity”.
The entry for “QVHLVESGGGLVQAGGSLRLSCAASGSTFWYNAMRWYRQAPGKERELVASIDDIGGSTYYADSVKGRFTISRDNAKYTVYLQMNSLKPEDTAVYYCAKDYGSSYVTDSDYWGQATQVTVSS” is “low polyreactivity”; for “QVQLVESGGGLVQAGGSLRLSCAASGSTFLVYAMGWYRQAPGKERELVAAIRSGGRTYYADSVKGRFTISRDNAKNTVYLQMNSLKPEDTAVYYCAADVLLRYGYRGYDYWGQGTQVTVSS” it is “low polyreactivity”; for “QVQLVESGGGLVQAGGSLRLSCAASGITFGSYAMGWYRQAPGKERELVAAISRSGGSTYYADSVKGRFTISRDNAKNTVYLQMNSLKPEDTAVYYCAVRYVYYREGDYWGQGTQVSVSS” it is “high polyreactivity”.
The entry for “QVQLVESGGGLVQAGGSLRLSCAASGFIFVYYAMGWYRQAPGKERELVAAISGHGGRTYYADSVKGRFTISRDNAKNTVYLQMNSLKPEDTAVYYCAALLYWRGYGYNYWGQGTQVTVSS” is “high polyreactivity”; for “QVQLVESGGGLVQAGGSLRLSCAASGRTFVNNAMGWYRQAPGKERELVAAITRSGGRTYYADSVKGRFTISRDNAKNTVYLQMNSLKPEDTAVYYCATANVRLRHDDYWGQGTQVTVSS” it is “high polyreactivity”.
“QVQLVESGGGLVQAGGSLRLSCAASGRTFWYYAMGWYRQAPGKEREFVAAISYSGDGTYYADSVKGRFTISRDNAKNTVYLQMNSLKPEDTAVYYCAAEWYDPTLPTAWSEYEYWGQGTQVTVSS”: the “polyreactivity (PSR sort gate)” value is “high polyreactivity”.
The entry for “QVLLVESGGGLVQAGGSLRLSCAASGLTFERYAMGWYRQAPGKERELVAAISIRGGSTYYADSVKGRFTISRDKAMNTVYFQMKSLKPEDTAVDYCSADGSGREYDYWGQGTQVTVSS” is “low polyreactivity”; for “QVQLVESGGGLVQAGGSLRLTCAASGFIFSKYAMGSYRQAPGKERELVAAISTSGASTYYADSVKGRFTISRDNAKNTVYLQMNSLKPEDTAVYYCNVPRYSPIRNYDYWGQGTQVTVSS” it is “high polyreactivity”; for “QVQLVESGGGLVQAGGSLRLSCAASGRTFGYNVMGWYTQAPGKERELVAGISESGGRTYYADSVKGRVTISRDNAKNTVYLQMNSLKPEDTAVYYCAKRYQRASYDYWGQGTQVTVSS” it is “high polyreactivity”.
The entry for “QGHLVESGGGLVHAGGSLRLSCAASGRIFDVNAMGWYRQAPWKERELVAAISSGGNTKYADSVKGRFTISRDNAKNTVYLQMNSLKPEDTAVYYCIADGKAGGDYDYWGQGTQVTVSS” is “low polyreactivity”.
